Each block holds one molecule with its values, some of them ahead of it.
Key:
[1] = target: HA-tagged human RTEL1 HHD1+2 deletion construct (human) (UniProt Q9NZ71); experiment: co-IP; whole-cell extracts of HEK293T cells overexpressing HA-tagged RTEL1 constructs; IP overnight at 4°C (anti-HA), protein G agarose, immunoblot for RPA; with or without 100 units Benzonase
RTEL1 HHD2 [2] = target: T1, RTEL1 HHD2 (Homo sapiens, UniProt Q9NZ71-6 1056-1140); experiment: ITC; pH 6.5; NMR: 20 mM Tris-HCl pH 7.4, 50 mM NaCl, 2 mM DTT, 0.02% NaN3, 10% D2O, 25 C (one ssDNA-22 titration at pH 6.5); ITC: 10 mM potassium phosphate pH 6.5, 50 mM KCl, 0.02% NaN3, 25 C; settings: protein: recombinant, tags: N-terminal 6xHis
T1 sequence: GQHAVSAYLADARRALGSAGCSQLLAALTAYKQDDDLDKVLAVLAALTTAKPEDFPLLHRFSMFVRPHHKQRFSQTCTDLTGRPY

[3] = target: T2, RPA 32C winged-helix domain (residues 172-270 of RPA32) (human, UniProt P15927 172-270); experiment: NMR titration; 15N-labelled partner titrated with unlabelled partner; 1H-15N HSQC, 25°C, 20 mM Tris-HCl pH 7.4, 50 mM NaCl, 2 mM DTT, 0.02% NaN3; Kd and Koff from TITAN 2D lineshape analysis, two-state model; settings: both partners purified
T2 construct: RPA32 (RPA2), human, residues 172-270 (winged-helix 32C domain); pET-15b; uniformly 15N-labelled where it was the observed partner; source: E. coli BL21(DE3) pLysS, purified (Ni-NTA, Q column, SEC); not shown: His6, N-terminal, kept
T2 sequence (P15927 172-270): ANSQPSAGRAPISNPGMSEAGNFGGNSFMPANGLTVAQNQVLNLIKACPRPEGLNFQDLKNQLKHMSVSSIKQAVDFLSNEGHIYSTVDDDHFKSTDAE

RTEL1 HHD2 [4] = target: T1, RTEL1 HHD2; experiment: NMR titration; pH 7.4; NMR: 20 mM Tris-HCl pH 7.4, 50 mM NaCl, 2 mM DTT, 0.02% NaN3, 10% D2O, 25 C (one ssDNA-22 titration at pH 6.5); ITC: 10 mM potassium phosphate pH 6.5, 50 mM KCl, 0.02% NaN3, 25 C; settings: protein: recombinant; tags: N-terminal 6xHis; single strand
RTEL1 HHD2 [5] = target: T1, RTEL1 HHD2; experiment: NMR titration (TITAN); pH 7.4; NMR: 20 mM Tris-HCl pH 7.4, 50 mM NaCl, 2 mM DTT, 0.02% NaN3, 10% D2O, 25 C (one ssDNA-22 titration at pH 6.5); ITC: 10 mM potassium phosphate pH 6.5, 50 mM KCl, 0.02% NaN3, 25 C; settings: protein: recombinant, tags: N-terminal 6xHis
RTEL1 HHD2 [6] = target: T1, RTEL1 HHD2; experiment: NMR titration (TITAN); pH 6.5; NMR: 20 mM Tris-HCl pH 7.4, 50 mM NaCl, 2 mM DTT, 0.02% NaN3, 10% D2O, 25 C (one ssDNA-22 titration at pH 6.5); ITC: 10 mM potassium phosphate pH 6.5, 50 mM KCl, 0.02% NaN3, 25 C; settings: protein: recombinant; tags: N-terminal 6xHis; single strand
RTEL1 HHD1 = target: T3, RTEL1 HHD1 (Homo sapiens, UniProt Q9NZ71-6 886-978); experiment: NMR titration; NMR: 20 mM Tris-HCl pH 7.4, 50 mM NaCl, 2 mM DTT, 0.02% NaN3, 10% D2O, 25 C (one ssDNA-22 titration at pH 6.5); ITC: 10 mM potassium phosphate pH 6.5, 50 mM KCl, 0.02% NaN3, 25 C; settings: protein: recombinant; tags: N-terminal 6xHis; single strand
T3 sequence: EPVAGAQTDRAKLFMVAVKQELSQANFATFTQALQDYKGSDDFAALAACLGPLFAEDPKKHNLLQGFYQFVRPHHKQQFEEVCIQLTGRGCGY

reduction of co-immunoprecipitated RPA against full-length HA-RTEL1 [1]: 80%
Molecule: endogenous replication protein A (RPA) of HEK293T cells (from UniProt P27694 1-616; P15927 1-270; P35244 1-121) (complex)

B1: dsDNA-24 (dsDNA)
DNA 1: TTAGGCAGAGAGAGAGAGTTAGGC
DNA 2: GCCTAACTCTCTCTCTCTGCCTAA
Kd (RTEL1 HHD2 [2]; blunt): 1950 ± 310 nM

Kd [3]: 360000 nM | koff [3]: 8460 s⁻¹
B2: RTEL1 harmonin homology domain 2 (residues 1056-1140) (domain or fragment, human, UniProt Q9NZ71-6 1056-1140, looked up)
chain: T1 sequence
notes: RTEL1, human, residues 1056-1140 (HHD2) of Uniprot Q9NZ71-6; uniformly 15N-labelled where it was the observed partner; also called HHD2; RTEL1 HHD2; source: E. coli Rosetta (DE3), purified (Ni-NTA, heparin, SEC); not shown: His6, N-terminal, kept

Molecule: TTAGGA (ssDNA) [ssDNA-6]
binding result (RTEL1 HHD2 [4]): no binding

B3: dsDNA-22 (dsDNA)
DNA 1: AGGATTAGGATTAGGATTAGGA
DNA 2: TCCTAATCCTAATCCTAATCCT
Kd (RTEL1 HHD2 [5]; blunt): 19700 ± 4670 nM

Molecule: TTAGGCAGAGAGAGAGAGTTAGGC (ssDNA) [ssDNA-24]
Kd (RTEL1 HHD2 [2]; single strand): 1320 ± 150 nM

B4: 5'ss_dsDNA-24 (mixed)
DNA 1: TTAGGCAGAGAGAGAGAGTTAGGC
DNA 2: GCCTAACTCTCTCTCTCT
Kd (RTEL1 HHD2 [2]; 5' overhang 6 nt (strand 1)): 2580 ± 270 nM

B5: 3'ss_dsDNA-24 (mixed)
DNA 1: TTAGGCAGAGAGAGAGAGTTAGGC
DNA 2: CTCTCTCTCTCTGCCTAA
Kd (RTEL1 HHD2 [2]; 3' overhang 6 nt (strand 1)): 1220 ± 90 nM

Molecule: AGGATTAGGATTAGGATTAGGA (ssDNA) [ssDNA-22]
Kd (RTEL1 HHD2 [6]): 3030 ± 640 nM | Kd (RTEL1 HHD2 [2]; single strand): 940 ± 130 nM | binding result (RTEL1 HHD1): no binding | Kd (RTEL1 HHD2 [5]; single strand): 14600 ± 1210 nM

Molecule: TTAGGATTAGGA (ssDNA) [ssDNA-12]
Kd (RTEL1 HHD2 [2]; single strand): 1510 ± 140 nM
